As a reminder, the stoichiometry N is a count of units in the complex or per binding partner.

Data set [1] concerns the molecule itself. As to the kind of experiment: SEC; HPLC, TSKgel-SWXLG3000 column; INHis at 50 µM; running buffer 20 mM HEPES pH 7.4, 750 mM NaCl, 3.75 mM CHAPS; 4°C as possible; self-association (tetramer, dimer, monomer).
For data set [2], the target named is T1, His-tagged lens epithelium-derived growth factor p75 (LEDGF/p75) (human (sequence derived from 293T cells), UniProt O75475 1-530).
T1 construct: also called LEDGFHis; LEDGF/p75His; source: E. coli Rosetta (DE3) pLysS, purified (His-TALON column); not shown: His6, N-terminal, kept
As to the kind of experiment: pull-down; F-IN (2 µM) and LEDGF/p75His (2 µM) 30 min at RT in 50 mM HEPES pH 7.0, 300 mM NaCl, 2 mM MgCl2, 2 mM BME, 5% glycerol, 0.2% NP-40, 20 mM imidazole; His 60 Ni resin; wash with 1 M NaCl; Coomassie staining. The conditions noted are these: both partners purified.

T1 sequence (O75475 whole entry): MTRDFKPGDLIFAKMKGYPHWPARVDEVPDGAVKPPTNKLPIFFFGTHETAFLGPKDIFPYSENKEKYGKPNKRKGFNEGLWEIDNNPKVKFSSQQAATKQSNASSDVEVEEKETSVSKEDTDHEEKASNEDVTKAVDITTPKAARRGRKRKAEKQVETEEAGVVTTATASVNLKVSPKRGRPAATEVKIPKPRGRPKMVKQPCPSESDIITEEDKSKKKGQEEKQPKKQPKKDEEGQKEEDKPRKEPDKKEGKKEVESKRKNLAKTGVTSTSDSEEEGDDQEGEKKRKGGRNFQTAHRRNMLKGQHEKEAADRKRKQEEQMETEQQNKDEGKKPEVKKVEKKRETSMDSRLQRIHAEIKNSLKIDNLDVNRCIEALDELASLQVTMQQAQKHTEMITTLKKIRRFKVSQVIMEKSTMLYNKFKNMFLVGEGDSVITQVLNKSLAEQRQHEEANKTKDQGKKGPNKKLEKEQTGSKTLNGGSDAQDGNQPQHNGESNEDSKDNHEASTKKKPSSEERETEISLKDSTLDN

B1: recombinant His-tagged HIV-1 integrase, wild type (IN^WT) (enzyme)
chain: FLDGIDKAQEEHEKYHSNWRAMASDFNLPPVVAKEIVASCDKCQLKGEAMHGQVDCSPGIWQLDCTHLEGKVILVAVHVASGYIEAEVIPAETGQETAYFLLKLAGRWPVKTVHTDNGSNFTSTTVKAACWWAGIKQEFGIPYNPQSQGVIESMNKELKKIIGQVRDQAEHLKTAVQMAVFIHNFKRKGGIGGYSAGERIVDIIATDIQTKELQKQITKIQNFRVYYRDSRDPVWKGPAKLLWKGEGAVVIQDNSDIKVVPRRKAKIIRDYGKQMAGDDCVASRQDED
notes: pET30a IN-6xHis; also called INHis; IN-6xHis; source: E. coli Rosetta (DE3) pLysS, purified (His-TALON column); not shown: His6, C-terminal, kept
As for B1, the “stoichiometry N” value in data set [1] worked out at 2.

B2: Flag-tagged HIV-1 integrase, wild type (F-IN^WT) (enzyme)
chain: FLDGIDKAQEEHEKYHSNWRAMASDFNLPPVVAKEIVASCDKCQLKGEAMHGQVDCSPGIWQLDCTHLEGKVILVAVHVASGYIEAEVIPAETGQETAYFLLKLAGRWPVKTVHTDNGSNFTSTTVKAACWWAGIKQEFGIPYNPQSQGVIESMNKELKKIIGQVRDQAEHLKTAVQMAVFIHNFKRKGGIGGYSAGERIVDIIATDIQTKELQKQITKIQNFRVYYRDSRDPVWKGPAKLLWKGEGAVVIQDNSDIKVVPRRKAKIIRDYGKQMAGDDCVASRQDED
notes: pET30a Flag-IN; also called Flag-IN; source: E. coli Rosetta (DE3) pLysS, purified (by previous reports, Kessl et al., 2012); not shown: FLAG, N-terminal, kept
In the case of B2, in data set [2], the binding result is listed as “binds”.

The record behind these values is paper doi:10.1101/836718, “A unique conformational escape reaction of HIV-1 against an allosteric integrase inhibitor” (bioRxiv, 2019).
